Test results as given in PMC4606517, “Water-mediated recognition of t1-adenosine anchors Argonaute2 to microRNA targets”.

Legend:
Ago2 A481T = Ago2 A481T (Homo sapiens, UniProt Q9UKV8 1-859, A481T); experiment: filter binding; guide-loaded Ago2; target Kd; Filter binding: 30 mM Tris pH 8.0, 0.1 M K acetate, 2 mM Mg acetate, 0.5 mM TCEP, 0.005% NP-40, 0.01 mg/ml yeast tRNA, room temp, 45 min, 0.1 nM target; smFRET: 50 mM Tris pH 8.0, 50 mM NaCl, 60 mM KCl (RISC assembly buffer), 23 C; conditions: protein: recombinant; tags: His6; guide g2-g9 pairs target nt 1-8; 3' overhangs; t1 = target nt 9
Ago2 A481T, sequence (Q9UKV8 whole entry A481T): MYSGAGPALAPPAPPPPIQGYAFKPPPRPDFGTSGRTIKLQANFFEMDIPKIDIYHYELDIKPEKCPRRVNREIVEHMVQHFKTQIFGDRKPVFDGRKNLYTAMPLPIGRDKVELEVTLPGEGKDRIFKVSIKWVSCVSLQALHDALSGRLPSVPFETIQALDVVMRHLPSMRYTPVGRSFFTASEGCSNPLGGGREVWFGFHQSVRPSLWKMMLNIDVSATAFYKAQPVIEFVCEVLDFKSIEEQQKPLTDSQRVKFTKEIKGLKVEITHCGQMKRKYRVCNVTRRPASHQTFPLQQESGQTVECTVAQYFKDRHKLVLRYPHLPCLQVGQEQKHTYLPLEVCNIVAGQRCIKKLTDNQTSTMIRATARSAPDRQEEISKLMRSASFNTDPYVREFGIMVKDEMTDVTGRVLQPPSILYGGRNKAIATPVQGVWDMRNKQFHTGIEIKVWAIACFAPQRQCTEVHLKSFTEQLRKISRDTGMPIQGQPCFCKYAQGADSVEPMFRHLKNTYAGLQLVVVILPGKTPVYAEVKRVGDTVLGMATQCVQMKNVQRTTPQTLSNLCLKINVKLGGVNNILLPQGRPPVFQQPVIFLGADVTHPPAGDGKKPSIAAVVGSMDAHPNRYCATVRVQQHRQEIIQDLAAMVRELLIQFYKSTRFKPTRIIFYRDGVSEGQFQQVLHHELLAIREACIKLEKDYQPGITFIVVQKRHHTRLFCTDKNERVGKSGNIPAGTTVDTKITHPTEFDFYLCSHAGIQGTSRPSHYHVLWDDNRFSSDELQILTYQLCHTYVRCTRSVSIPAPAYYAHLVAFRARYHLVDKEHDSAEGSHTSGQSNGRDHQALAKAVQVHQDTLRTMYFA

Ago2 wild type = Ago2 wild type (Homo sapiens, UniProt Q9UKV8 1-859); experiment: as above; conditions: protein: recombinant; tags: His6; guide g2-g9 pairs target nt 1-8; 3' overhangs; t1 = target nt 9
Ago2 wild type, sequence (Q9UKV8 whole entry): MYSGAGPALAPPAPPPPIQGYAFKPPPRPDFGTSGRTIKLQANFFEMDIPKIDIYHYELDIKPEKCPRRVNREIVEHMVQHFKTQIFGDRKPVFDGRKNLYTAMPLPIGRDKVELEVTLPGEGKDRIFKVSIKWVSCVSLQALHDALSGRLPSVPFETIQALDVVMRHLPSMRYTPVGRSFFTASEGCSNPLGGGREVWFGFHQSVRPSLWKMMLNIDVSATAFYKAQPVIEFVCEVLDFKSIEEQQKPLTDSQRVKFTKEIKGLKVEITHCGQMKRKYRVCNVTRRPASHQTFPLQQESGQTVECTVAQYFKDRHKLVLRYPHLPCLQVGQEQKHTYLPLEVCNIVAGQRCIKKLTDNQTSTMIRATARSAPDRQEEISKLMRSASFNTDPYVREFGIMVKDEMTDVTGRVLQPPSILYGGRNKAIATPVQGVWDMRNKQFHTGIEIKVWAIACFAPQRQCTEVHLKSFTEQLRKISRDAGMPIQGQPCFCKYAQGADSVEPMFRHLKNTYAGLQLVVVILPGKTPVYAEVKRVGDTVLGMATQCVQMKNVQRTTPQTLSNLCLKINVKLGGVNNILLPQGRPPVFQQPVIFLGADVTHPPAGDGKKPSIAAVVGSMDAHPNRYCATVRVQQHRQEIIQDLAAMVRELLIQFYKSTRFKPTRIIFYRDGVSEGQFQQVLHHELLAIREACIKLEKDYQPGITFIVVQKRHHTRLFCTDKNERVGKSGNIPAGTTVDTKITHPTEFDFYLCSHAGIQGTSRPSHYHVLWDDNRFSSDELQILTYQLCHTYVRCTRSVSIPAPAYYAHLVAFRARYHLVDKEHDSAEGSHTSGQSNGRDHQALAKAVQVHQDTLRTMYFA

Row | Binder | Kd (Ago2 A481T) | Kd (Ago2 wild type)
1 | guide + t1G target (dsRNA, 5'-phosphate on guide) RNA 1: UUCACAUUGCCCAAGUCUCUU RNA 2: CAAUGUGAGAA | 1.8 ± 0.11 nM | 1.9 ± 0.09 nM
2 | guide + t1A target (dsRNA, 5'-phosphate on guide) RNA 1: UUCACAUUGCCCAAGUCUCUU RNA 2: CAAUGUGAAAA | 1.5 ± 0.13 nM | 0.75 ± 0.04 nM
3 | guide + t1DAP target (dsRNA, 5'-phosphate on guide; target nt 9 = 2,6-diaminopurine (written A)) RNA 1: UUCACAUUGCCCAAGUCUCUU RNA 2: CAAUGUGAAAA | – | 0.45 ± 0.03 nM
4 | guide + t1U target (dsRNA, 5'-phosphate on guide) RNA 1: UUCACAUUGCCCAAGUCUCUU RNA 2: CAAUGUGAUAA | – | 1.9 ± 0.1 nM
5 | guide + t1m6A target (dsRNA, 5'-phosphate on guide; target nt 9 = N6-methyladenosine (written A)) RNA 1: UUCACAUUGCCCAAGUCUCUU RNA 2: CAAUGUGAAAA | – | 1.8 ± 0.12 nM
6 | guide + t1C target (dsRNA, 5'-phosphate on guide) RNA 1: UUCACAUUGCCCAAGUCUCUU RNA 2: CAAUGUGACAA | – | 1.8 ± 0.12 nM
